Biological target: T1, SARS-CoV-2 native Spike (S) trimer (Acro Biosystems) (SARS-CoV-2, UniProt P0DTC2 16-1213)
T1 construct: also called Spike trimer
Assay: ELISA on spike trimer

B1: AB-009681 (antibody, V domains shown)
VH: QVQLVQSGAEVKKPGSSVKVSCKASGGTFSSYAISWVRQAPGQGLEWMGGIIPIFGTANYAQKFQGRVTITADESTSTAYMELSSLRSEDTAVYYCASVGGDYDLDYWGQGTLVTVSS
VL: EIVLTQSPATLSLSPGERATLSCRASQSVSSYLAWYQQKPGQAPRLLIYDASNRATGIPARFSGSGSGTDFTLTISSLEPEDFAVYYCQQRSNWPPYTFGQGTKLEIK
  binding result: no binding

Reference: patent US20240301038A1 (ATRECA, published 2024)
